Source: publication PMC7840889, “Architecture of the Tuberous Sclerosis Protein Complex” (Journal of Molecular Biology, 2021)

B1: FLAG-tagged full-length human TSC1 (natural protein, UniProt Q92574-1 1-1164, looked up)
chain: MAQQANVGELLAMLDSPMLGVRDDVTAVFKENLNSDRGPMLVNTLVDYYLETSSQPALHILTTLQEPHDKHLLDRINEYVGKAATRLSILSLLGHVIRLQPSWKHKLSQAPLLPSLLKCLKMDTDVVVLTTGVLVLITMLPMIPQSGKQHLLDFFDIFGRLSSWCLKKPGHVAEVYLVHLHASVYALFHRLYGMYPCNFVSFLRSHYSMKENLETFEEVVKPMMEHVRIHPELVTGSKDHELDPRRWKRLETHDVVIECAKISLDPTEASYEDGYSVSHQISARFPHRSADVTTSPYADTQNSYGCATSTPYSTSRLMLLNMPGQLPQTLSSPSTRLITEPPQATLWSPSMVCGMTTPPTSPGNVPPDLSHPYSKVFGTTAGGKGTPLGTPATSPPPAPLCHSDDYVHISLPQATVTPPRKEERMDSARPCLHRQHHLLNDRGSEEPPGSKGSVTLSDLPGFLGDLASEEDSIEKDKEEAAISRELSEITTAEAEPVVPRGGFDSPFYRDSLPGSQRKTHSAASSSQGASVNPEPLHSSLDKLGPDTPKQAFTPIDLPCGSADESPAGDRECQTSLETSIFTPSPCKIPPPTRVGFGSGQPPPYDHLFEVALPKTAHHFVIRKTEELLKKAKGNTEEDGVPSTSPMEVLDRLIQQGADAHSKELNKLPLPSKSVDWTHFGGSPPSDEIRTLRDQLLLLHNQLLYERFKRQQHALRNRRLLRKVIKAAALEEHNAAMKDQLKLQEKDIQMWKVSLQKEQARYNQLQEQRDTMVTKLHSQIRQLQHDREEFYNQSQELQTKLEDCRNMIAELRIELKKANNKVCHTELLLSQVSQKLSNSESVQQQMEFLNRQLLVLGEVNELYLEQLQNKHSDTTKEVEMMKAAYRKELEKNRSHVLQQTQRLDTSQKRILELESHLAKKDHLLLEQKKYLEDVKLQARGQLQAAESRYEAQKRITQVFELEILDLYGRLEKDGLLKKLEEEKAEAAEAAEERLDCCNDGCSDSMVGHNEEASGHNGETKTPRPSSARGSSGSRGGGGSSSSSSELSTPEKPPHQRAGPFSSRWETTMGEASASIPTTVGSLPSSKSFLGMKARELFRNKSESQCDEDGMTSSLSESLKTELGKDLGVEAKIPLNLDGPHPSPPTPDSVGQLHIMDYNETHHEHS
notes: human TSC1, full length, 1164 amino acids, UniProtKB/Swiss-Prot Q92574-1; Two copies stand in the TSCC; also called hamartin
B3: TSC1(Δ400-600) (natural protein, human, UniProt Q92574-1 1-1164, looked up)
chain: MAQQANVGELLAMLDSPMLGVRDDVTAVFKENLNSDRGPMLVNTLVDYYLETSSQPALHILTTLQEPHDKHLLDRINEYVGKAATRLSILSLLGHVIRLQPSWKHKLSQAPLLPSLLKCLKMDTDVVVLTTGVLVLITMLPMIPQSGKQHLLDFFDIFGRLSSWCLKKPGHVAEVYLVHLHASVYALFHRLYGMYPCNFVSFLRSHYSMKENLETFEEVVKPMMEHVRIHPELVTGSKDHELDPRRWKRLETHDVVIECAKISLDPTEASYEDGYSVSHQISARFPHRSADVTTSPYADTQNSYGCATSTPYSTSRLMLLNMPGQLPQTLSSPSTRLITEPPQATLWSPSMVCGMTTPPTSPGNVPPDLSHPYSKVFGTTAGGKGTPLGTPATSPPPAPPPPYDHLFEVALPKTAHHFVIRKTEELLKKAKGNTEEDGVPSTSPMEVLDRLIQQGADAHSKELNKLPLPSKSVDWTHFGGSPPSDEIRTLRDQLLLLHNQLLYERFKRQQHALRNRRLLRKVIKAAALEEHNAAMKDQLKLQEKDIQMWKVSLQKEQARYNQLQEQRDTMVTKLHSQIRQLQHDREEFYNQSQELQTKLEDCRNMIAELRIELKKANNKVCHTELLLSQVSQKLSNSESVQQQMEFLNRQLLVLGEVNELYLEQLQNKHSDTTKEVEMMKAAYRKELEKNRSHVLQQTQRLDTSQKRILELESHLAKKDHLLLEQKKYLEDVKLQARGQLQAAESRYEAQKRITQVFELEILDLYGRLEKDGLLKKLEEEKAEAAEAAEERLDCCNDGCSDSMVGHNEEASGHNGETKTPRPSSARGSSGSRGGGGSSSSSSELSTPEKPPHQRAGPFSSRWETTMGEASASIPTTVGSLPSSKSFLGMKARELFRNKSESQCDEDGMTSSLSESLKTELGKDLGVEAKIPLNLDGPHPSPPTPDSVGQLHIMDYNETHHEHS
notes: human TSC1 (1164 amino acids, Q92574-1) with an internal deletion of residues 400-600; also called TSC1 internal deletion construct; TSC1 of TSCC1Δ
B4: FLAG-tagged full-length human TSC2 (natural protein)
chain: not shown
notes: human TSC2, full length, 1807 amino acids, UniProtKB/Swiss-Prot P49815-1; Could not be purified in the absence of TSC1; two copies stand in the TSCC; also called tuberin

Assays:
[1] = target: B4; experiment: cryo-EM structure; single-particle cryo-EM of purified TSCCFL at 0.1-0.2 mg/mL on graphene oxide; 25 mM K-HEPES pH 7.6, 175 mM KCl or 150 mM LiCl, 1 mM TCEP; body 4.6 Å, pincer 8.1 Å, tail 8.2 Å; conditions: both partners purified
[2] = target: B1; experiment: as above; conditions: both partners purified
TSC1(Δ400-600) = target: B3; experiment: SEC-MALS; TSCC1Δ (TSC1(Δ400-600)-TSC2-TBC1D7) on Superose 6 10/300; 25 mM K-HEPES pH 7.6, 250 mM KCl, 0.5 mM EDTA, 1 mM TCEP; room temperature; conditions: both partners purified
[3] = target: the molecule itself; experiment: as above
[4] = target: B4; experiment: as above; conditions: both partners purified

B1
binding result [1]: binds

B2: FLAG-tagged human TBC1D7 (natural protein, UniProt Q9P0N9 1-293, looked up)
chain: MTEDSQRNFRSVYYEKVGFRGVEEKKSLEILLKDDRLDTEKLCTFSQRFPLPSMYRALVWKVLLGILPPHHESHAKVMMYRKEQYLDVLHALKVVRFVSDATPQAEVYLRMYQLESGKLPRSPSFPLEPDDEVFLAIAKAMEEMVEDSVDCYWITRRFVNQLNTKYRDSLPQLPKAFEQYLNLEDGRLLTHLRMCSAAPKLPYDLWFKRCFAGCLPESSLQRVWDKVVSGSCKILVFVAVEILLTFKIKVMALNSAEKITKFLENIPQDSSDAIVSKAIDLWHKHCGTPVHSS
notes: human TBC1D7, 293 amino acids, GenBank AAH07054; part of the FL TSC1-TSC2-TBC1D7 (TSCCFL) plasmids; One copy stands in the TSCC
binding result [2]: binds
binding result (TSC1(Δ400-600)): binds

B3
stoichiometry N [3]: ~2
binding result [4]: binds

B4
stoichiometry N [3]: ~2
